Target: prothrombin, P00734

B1: genetic recombinant ecarin (protein)
chain: IILGSGNVNDYEVVYPQKVTALPKGAVQQPEQKYEDAMQYEFEVKGEPVVLHLEKNKELFSEDYSETHYSSDDREITTNPSVEDHCYYHGRIQNDAESTASISACNGLKGHFKLRGETYFIEPLKIPDSEAHAVYKYENIENEDEAPKMCGVTQDNWESDEPIKKTLGLIVPPHERKFEKKFIELVVVVDHSMVTKYNNDSTAIRTWIYEMLNTVNEIYLPFNIRVALVGLEFWCNGDLINVTSTADDTLHSFGEWRASDLLNRKRHDHAQLLTNVTLDHSTLGITFVYGMCKSDRSVELILDYSNITFNMAYIIAHEMGHSLGMLHDTKFCTCGAKPCIMFGKESIPPPKEFSSCSYDQYNKYLLKYNPKCILDPPLRKDIASPAVCGNEIWEEGEECDCGSPADCRNPCCDAATCKLKPGAECGNGECCDKCKIRKAGTECRPARDDCDVAEHCTGQSAECPRNEFQRNGQPCLNNSGYCYNGDCPIMLNQCIALFSPSATVAQDSCFQRNLQGSYYGYCTKEIGYYGKRFPCAPQDVKCGRLYCLDNSFKKNMRCKNDYSYADENKGIVEPGTKCEDGKVCINRKCVDVNTAY
N-terminal amino acid sequence of the thrombin B chain after activation: the recombinant ecarin obtained according to the present invention specifically cleaves the peptide bond at the Arg-Ile site in prothrombin like snake venom derived ecarin
activity to cleave S-2238 (thrombin enzymatic activity after 16 hours at 37 C with 2 U/mL recombinant ecarin): the activity to cleave S-2238 was detected in prothrombin when added with the recombinant ecarin
